Laboratory results taken from patent publication US20220112288A1 (published 2022).
Substitutions are numbered along the chain they refer to.

B1: 75110_04G02A (antibody, V domains shown)
VH: not shown
VL: DIVMTQSPDSLAVSLGERATINCKSSQSVLYSSNNKNYLAWYQQKPGQPPKLLFYWASARESGVPDRFSGSGSGTDFTLTISSLQAEDVALYYCQQYFGSFPTFGQGTKLEIK
notes: Non-clonal AlivaMab Mouse Kappa hybridoma supernatant, captured by anti-mouse IgG Fc (human V regions, mouse Fc)
B2: 75110_05A11A (antibody, V domains shown)
VH: EVQLVESGGGLVKPGGSLTLSCAASGFTFSNTWMSWVRQAPGKGLEWVGRIKSKIDGGTTDYAAPVKGRFTISRDDSKNTLYLQMNSLKTEDTAVYYCTTSGTYSSGWGLFDYWGQGTLVTVSS
VL: DIQMTQSPSSLSASVGDRVTITCQASQDISNYLNWYQQKPGKAPKLLIYDTSNLEAGVPSRFSGSGSGTHFTLTISSLQPEDIATYYCQQYDNLPFTFGGGTRVEIK
notes: as for B1
B3: 75110_04H17A (antibody, V domains shown)
VH: QVQLQESGPGLVKPSETLSLTCTVSGGSISTYYWSWIRQSAGKGLEWIGRIYTSERPNYNPSLKSRVTMSVDTSKNQFSLKLNSVSAADTAVYYCARELERPYYYGMDVWGQGTTVTVSS
VL: B2 VL with I2V, D17G, D50Y, T51A, A56T, H70D, L73F, I83F, F96L, R103K
notes: as for B1
B4: 75110_02K11A (antibody, V domains shown)
VH: QVQLQESGPGLVKPSQTLSLTCTVSGGSISSGFYYWTWIRQHPGKGLEWIGYISYSGNTYYNPSFKSRLTISVDTSKSQFSLKLSSVTAADTAVYYCARDRPSNFDAFDIWGQGTMVTVSS
VL: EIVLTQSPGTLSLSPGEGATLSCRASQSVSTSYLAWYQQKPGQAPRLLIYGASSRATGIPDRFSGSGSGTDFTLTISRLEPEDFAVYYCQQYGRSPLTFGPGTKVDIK
notes: as for B1
B5: 75110_03I23A (antibody, V domains shown)
VH: QVQLQESGPGLVKPSETLSLTCTASGGSITSYYWNWIRQPAGKGLEWIGRIYTSGSTNYNPSLKSRVTMSVDTSKNQFSLKLSSVTAADTAVYYCARDPGYSDAFNIWGQGTMVTVSS
VL: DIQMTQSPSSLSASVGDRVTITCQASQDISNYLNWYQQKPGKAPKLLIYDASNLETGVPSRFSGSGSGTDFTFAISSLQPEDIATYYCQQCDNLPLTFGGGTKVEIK
notes: as for B1
B6: 75110_07N04A (antibody, V domains shown)
VH: B5 VH with T23S, A24V, G27V, I29S, Y32F, N35S, E46D, N106A
VL: not shown
notes: as for B1
B7: 75110_03I08A (antibody, V domains shown)
VH: QVQLQESGPGLVKPSETLSLTCTVSGGSISSYYWSWIRQPPGKGLEWIGYIYYSGSTNYNPSLKSRVTISVDTSKNQFSLKLSSVTAADTAVYYCAREGEQWFYGLDVWGQGTTVTVSS
VL: EIVLTQSPGTLSLSPGERATLSCRASQSVSSTYLAWYQQKPGQAPRLLIYGSSSRATGIPDRFSGSGSGTDFTLTISRLEPEDFAVYYCQQYGNSFPITFGQGTRLEIK
notes: as for B1
B8: 75110_05E13A (antibody, V domains shown)
VH: EVQLVESGGDLVKPGGSLRLSCAASGFSFSNAWMSWVRQAPGKGLEWVGRVESKTDGGTTDYAAPVKDRFTISRDDSKYTLYLQMNSLKTEDSAVYYCTIGGGFGLELYGFFDYWGQGTLVTVSS
VL: DIQMTQSPSTLSASVGDRVTITCRASQSISSWLAWYQQKPGKAPMLLIYKASSLESGVPSRFSGSGSGTEFTLTISSLQPDDFATYYCLQYNSYYTFGQGTKLEIK
notes: as for B1
B9: 75110_01C18A (antibody, V domains shown)
VH: EVQLVESGGGLIQPGGSLRLSCAASGFTVSSNYMNWVRQAPGKGLEWVSVIYAGDNTYSADSVKGRFTISRDNSNNTLCLQMNSLRAEDTAVYYCAREGGTTGAFDIWGQGTMVTVSS
VL: DIQMTQSPSSVSASVGDRVTITCRASQGINSWLAWYQQKPGKAPKLLIYAASSLQSGVPSRFSGSGSGTDFTLTISSLQPEDFATYYCQQGNSFPYTFGQGTKLEIK
notes: as for B1
B10: 75110_08A13A (antibody, V domains shown)
VH: EVQLVESGGGLVQPGGSLRLSCAASGFIFSSYWMSWVRQAPGKGLEWVANIKQDGSEKYYMDSVKGRFTISRDNAKNSLYLQMNSLRAEDTAVYYCARDNSYYYYGMDVWGQGTTVTVSS
VL: AIQMTQSPSSLSASVGDRVTITCRASQGIRDDLGWYQQKPGKAPKLLIFAASSLQSGVPSSFSGSGSGTDFTLTISSLQPEDFATYYCLHHYNYPYTFGQGTKLEIK
notes: as for B1
B11: 75110_07J24A (antibody, V domains shown)
VH: QAQLQESGPGLVKPSETLSLTCTVSGGSISSYYYNWIRQPAGKGLEWIGRIYTSGRTDYNPSLKSRVTMSADTSKNQFSLKLSSVTAADTAVYYCARDEGPTDAFDIWGQGTMVTVSS
VL: DIVMTQTPLSLPVTPGEPASISCRSSQSLLDSDDGNTYLDWYLQKPGQSPHLLIYTLSYRASGVPDRFSGSGSGSDFTLKISRVEAEDVGVYYCMQRIEFPFTFGPGTKVDIK
notes: as for B1
B12: 75110_05E05A (antibody, V domains shown)
VH: QVQLQESGPGLVKPSETLSLTCTVSGGSIGSYYWSWIRQPAGKGLEWIGRIYTSGSTNYNPSLKSRVTMSFDTSKNQFSLKLNSVTAADTAVYYCATDGGVGDSLDYWGQGTLVTVSS
VL: B11 VL with H51Q, S75T, R97H
notes: as for B1
B13: 75110_02I18A (antibody, V domains shown)
VH: EVQVVESGGGLVQPGGSLRLSCAASGFTFSSYDMHWVRQATGKGLEWVSTIGTAGDTYYPGSVKGRFTISRENAKNSLYLQMNSLRAGDTAVYYCARGGYYYYGMDVWGQGTTVTVSS
VL: EIVLTQSPGTLSLSPGERATLSCRASQSVSSSYLAWYQQKPGQSPRLLIHGASSRATGIPDRVSGSGSGTDFTLTISRLEPEDFAVYYCQQYGSSPFTFGPGTKVDIK
notes: as for B1
B14: 75110_08K12A (antibody, V domains shown)
VH: B13 VH with V4L, K75E, V92L, G99D
VL: B13 VL with S32T, S44A, H50Y, S54N, V63F, Y92F, S94T
notes: as for B1
B15: 75110_05F19A (antibody, V domains shown)
VH: B13 VH with V4L, S31N, M34V, A40P, Y101D, M105L
VL: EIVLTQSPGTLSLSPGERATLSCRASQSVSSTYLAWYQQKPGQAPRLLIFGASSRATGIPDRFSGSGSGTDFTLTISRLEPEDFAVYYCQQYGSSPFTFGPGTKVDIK
notes: as for B1
B16: 75110_02E22A (antibody, V domains shown)
VH: QVQLQESGPGLVKPSETLSLTCTVSGGSISSFYWSWIRQPAGKGLEWIGRIYTSGSTNYNPSLKSRVTMSVDTSKNQFSLKLSSVTAADTAVYYCARELEKRNYYGMDVWGQGTTVTVSS
VL: DIQMTQSPSSLSASVGDRVTITCQASHDISNYLNWYQQKPGKAPKLLIFDASTLETGVPSRFSGSGSGTYFTFTIRSLQPEDIATYYCQQYDSLPLTFGGGTKVEIK
notes: as for B1
B17: 75110_04D20A (antibody, V domains shown)
VH: B16 VH with G26N, S31D, F32Y, V67I, K81E, K101R, R102Y, N103Y, Y104F, M107V
VL: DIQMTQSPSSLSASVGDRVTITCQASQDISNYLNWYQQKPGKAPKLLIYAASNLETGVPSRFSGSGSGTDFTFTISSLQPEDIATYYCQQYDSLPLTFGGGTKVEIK
notes: as for B1
B18: 75110_06K03A (antibody, V domains shown)
VH: B16 VH with S31T, F32Y, Y52N, N58T, K101R, R102Y, N103Y
VL: B16 VL with H27Q, F49Y, D50Y, T53I, Y70D, R76S
notes: as for B1
B19: 75110_01L08A (antibody, V domains shown)
VH: QVQLQESGPGLVKPSETLSLTCTVSGGSISHYYWSWIRQPPGKGLEWIGYIHYSGTTNYNPSLKSRVTISVDTSKNQLSLKLRSVTAADTAVYYCARDQGFSSGGMDVWGQGTTVTVSS
VL: not shown
notes: as for B1
B20: 75110_14P08A (antibody, V domains shown)
VH: QVQLQESGPGLVKSSETLSLTCTDSGDSIRSYYWNWIRQPAGKGLEWIGRIYASGSTNYNPSLKSRVIMSADTSKNRFSLKLSSVTAADTAVYYCARDGGVGDSLDYWGQGTLVTVSS
VL: B11 VL with H51Q, S75T
notes: Tested as clonal hybridoma supernatant from AlivaMab Mouse Kappa mice: human variable regions, human kappa, mouse Fc
B21: 75110_14N19A (antibody, V domains shown)
VH: B16 VH with S31R, F32Y, Y52C, G55E, S56N, T57P, S62A, K101R, R102L
VL: DIQMTQFPSSLSASVGDRVTITCQASQDISNYLNWYQQKPGKAPKLLIYDASNLESGVPSRFSGRGSGTDFTFTISSLQPEDFATFYCQQYDTLPITFGQGTRLEIK
notes: as for B20
B22: 75110_14I16A (antibody, V domains shown)
VH: B16 VH with G26N, F32Y, P40S, S70L, E98D, L99R, K101D, R102Y, N103Y
VL: B16 VL with I48L, F49Y, D50Y, T53N, Y70D, R76T, A84G, Y87S, S93N
notes: Tested as clonal hybridoma supernatant from AlivaMab Mouse Kappa mice: human variable regions, human kappa, mouse Fc; also called 75110_14116A

These binders were tested against T1, Recombinant human CD4 (R&D Systems, Cat. 10327-CD) (human, UniProt P01730 26-390, limits assumed) (assay: BLI (Octet Red384), non-clonal supernatant on AMC sensor, 100 nM human CD4, 1:1 local fit;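 note: hybridoma antibodies captured from supernatant, single CD4 concentration as analyte, association and dissociation phases fitted together, giving single-point kinetic estimates per supernatant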).
T1 construct: Bought soluble recombinant protein used as analyte at 100 nM; also called huCD4

| Kd [nM] | koff [s⁻¹] | kon [M⁻¹ s⁻¹] | Binder |
| --- | --- | --- | --- |
| 0.76 | 0.00017 | 220000 | B1 |
| 3.2 | 0.00055 | 170000 | B2 |
| 9 | 0.00097 | 110000 | B3 |
| 17 | 0.0022 | 130000 | B4 |
| 8.6 | 0.0012 | 140000 | B5 |
| < 0.001 | < 1e-07 | 140000 | B6 |
| < 0.001 | < 1e-07 | 37000 | B7 |
| 7.4 | 0.0012 | 160000 | B8 |
| 16 | 0.0013 | 86000 | B9 |
| 4.4 | 0.001 | 230000 | B10 |
| < 0.001 | < 1e-07 | 77000 | B11 |
| 0.95 | 0.00013 | 140000 | B12 |
| 9 | 0.0033 | 370000 | B13 |
| 4.5 | 0.0031 | 700000 | B14 |
| 0.032 | 4.4e-06 | 140000 | B15 |
| 20 | 0.0042 | 210000 | B16 |
| 0.88 | 0.00013 | 150000 | B17 |
| 6.8 | 0.0019 | 280000 | B18 |
| 4.1 | 0.00037 | 91000 | B19 |

These binders were tested against T2, human CD4 on human PBMCs (human, UniProt P01730 26-458) (assay: FACS, clonal hybridoma supernatant on human PBMCs).
T2 construct: whole, on cells; the CD4-positive gate was set with the control antibodies OKT4 and RPA-T4; also called hCD4

| % CD4 Stain [%] | gMFI of CD4+ [gMFI] | Binder |
| --- | --- | --- |
| 28.3 | 58500 | B20 |
| 32.5 | 265000 | B21 |
| 33.2 | 298000 | B22 |

These binders were tested against T1, Recombinant human CD4 (R&D Systems, …) (assay: BLI (Octet Red384), non-clonal supernatant on AMC sensor, 100 nM human CD4).

| Response | Binder |
| --- | --- |
| 0.21 | B1 |
| 0.15 | B2 |
| 0.16 | B3 |
| 0.14 | B4 |
| 0.18 | B5 |
| 0.1 | B6 |
| 0.07 | B7 |
| 0.33 | B8 |
| 0.25 | B9 |
| 0.35 | B10 |
| 0.14 | B11 |
| 0.24 | B12 |
| 0.16 | B13 |
| 0.11 | B14 |
| 0.18 | B15 |
| 0.18 | B16 |
| 0.2 | B17 |
| 0.14 | B18 |
| 0.09 | B19 |
